{
  "source": "the RNAGym collection of RNA variant scans (doi:10.1101/gr.219683.116)",
  "parents": {"B1": {"name": "mRNA-splicing (parent)", "chain": "AGUUGCUGCUGGGAGCUCCAGCACAGUGAAAUGGACAGAAGGGCAGAGCAA"}},
  "data": [
    {"variants_of": "B1", "assay": "exon inclusion enrichment index; higher = more inclusion; WT1 exon 5 minigene, HEK293", "values": [
      {"variant": "G5U G8U C9U A39C", "exon inclusion enrichment index": 0.0249},
      {"variant": "G5U G8U C9U A39C A40C", "exon inclusion enrichment index": 0.321},
      {"variant": "G5U G8U C9U A39C A40G", "exon inclusion enrichment index": 0.162},
      {"variant": "G5U G8U C9U A39C A40U", "exon inclusion enrichment index": 0.141},
      {"variant": "G5U G8U C9U A39G", "exon inclusion enrichment index": 0.0522},
      {"variant": "G5U G8U C9U A39G A40C", "exon inclusion enrichment index": 0.128},
      {"variant": "G5U G8U C9U A39G A40G", "exon inclusion enrichment index": 0.00566},
      {"variant": "G5U G8U C9U A39G A40U", "exon inclusion enrichment index": 0.00232},
      {"variant": "G5U G8U C9U A39U", "exon inclusion enrichment index": 0.00188},
      {"variant": "G5U G8U C9U A39U A40C", "exon inclusion enrichment index": 0.287},
      {"variant": "G5U G8U C9U A39U A40G", "exon inclusion enrichment index": 0.0207},
      {"variant": "G5U G8U C9U A39U A40U", "exon inclusion enrichment index": 0.0352},
      {"variant": "G5U G8U C9U A40C", "exon inclusion enrichment index": 0.385},
      {"variant": "G5U G8U C9U A40C G41A", "exon inclusion enrichment index": 0.0439},
      {"variant": "G5U G8U C9U A40C G41C", "exon inclusion enrichment index": 0.711},
      {"variant": "G5U G8U C9U A40C G41U", "exon inclusion enrichment index": 0.079},
      {"variant": "G5U G8U C9U A40G", "exon inclusion enrichment index": 0.0867},
      {"variant": "G5U G8U C9U A40G G41A", "exon inclusion enrichment index": 0.0719},
      {"variant": "G5U G8U C9U A40G G41C", "exon inclusion enrichment index": 0.76},
      {"variant": "G5U G8U C9U A40G G41U", "exon inclusion enrichment index": 0.107},
      {"variant": "G5U G8U C9U A40U", "exon inclusion enrichment index": 0.0931},
      {"variant": "G5U G8U C9U A40U G41A", "exon inclusion enrichment index": 0.00332},
      {"variant": "G5U G8U C9U A40U G41C", "exon inclusion enrichment index": 0.508},
      {"variant": "G5U G8U C9U A40U G41U", "exon inclusion enrichment index": 0.0547},
      {"variant": "G5U G8U C9U A45C", "exon inclusion enrichment index": 0.201},
      {"variant": "G5U G8U C9U A45C G46A", "exon inclusion enrichment index": 0.056},
      {"variant": "G5U G8U C9U A45C G46C", "exon inclusion enrichment index": 0.0849},
      {"variant": "G5U G8U C9U A45C G46U", "exon inclusion enrichment index": 0.0571},
      {"variant": "G5U G8U C9U A45G", "exon inclusion enrichment index": 0.366},
      {"variant": "G5U G8U C9U A45G G46A", "exon inclusion enrichment index": 0.672},
      {"variant": "G5U G8U C9U A45G G46C", "exon inclusion enrichment index": 0.262},
      {"variant": "G5U G8U C9U A45G G46U", "exon inclusion enrichment index": 0.0933},
      {"variant": "G5U G8U C9U A45U", "exon inclusion enrichment index": 0.21},
      {"variant": "G5U G8U C9U A45U G46A", "exon inclusion enrichment index": 0.0906},
      {"variant": "G5U G8U C9U A45U G46C", "exon inclusion enrichment index": 0.11},
      {"variant": "G5U G8U C9U A45U G46U", "exon inclusion enrichment index": 0.0271},
      {"variant": "G5U G8U C9U A47C", "exon inclusion enrichment index": 0.283},
      {"variant": "G5U G8U C9U A47C G48A", "exon inclusion enrichment index": 0.0919},
      {"variant": "G5U G8U C9U A47C G48C", "exon inclusion enrichment index": 0.139},
      {"variant": "G5U G8U C9U A47C G48U", "exon inclusion enrichment index": 0.134},
      {"variant": "G5U G8U C9U A47G", "exon inclusion enrichment index": 0.0159},
      {"variant": "G5U G8U C9U A47G G48A", "exon inclusion enrichment index": 0.0435},
      {"variant": "G5U G8U C9U A47G G48C", "exon inclusion enrichment index": 0.0267},
      {"variant": "G5U G8U C9U A47G G48U", "exon inclusion enrichment index": 0.00268},
      {"variant": "G5U G8U C9U A47U", "exon inclusion enrichment index": 0.115},
      {"variant": "G5U G8U C9U A47U G48A", "exon inclusion enrichment index": 0.0727},
      {"variant": "G5U G8U C9U A47U G48C", "exon inclusion enrichment index": 0.0643},
      {"variant": "G5U G8U C9U A47U G48U", "exon inclusion enrichment index": 0.143},
      {"variant": "G5U G8U C9U C16A", "exon inclusion enrichment index": 0.141},
      {"variant": "G5U G8U C9U C16A U17A", "exon inclusion enrichment index": 0.0994},
      {"variant": "G5U G8U C9U C16A U17C", "exon inclusion enrichment index": 0.0818},
      {"variant": "G5U G8U C9U C16A U17G", "exon inclusion enrichment index": 0.0387},
      {"variant": "G5U G8U C9U C16G", "exon inclusion enrichment index": 0.0374},
      {"variant": "G5U G8U C9U C16G U17A", "exon inclusion enrichment index": 0.115},
      {"variant": "G5U G8U C9U C16G U17C", "exon inclusion enrichment index": 0.0319},
      {"variant": "G5U G8U C9U C16G U17G", "exon inclusion enrichment index": 0.00571},
      {"variant": "G5U G8U C9U C16U", "exon inclusion enrichment index": 0.128},
      {"variant": "G5U G8U C9U C16U U17A", "exon inclusion enrichment index": 0.0519},
      {"variant": "G5U G8U C9U C16U U17C", "exon inclusion enrichment index": 0.0384},
      {"variant": "G5U G8U C9U C16U U17G", "exon inclusion enrichment index": 0.0101},
      {"variant": "G5U G8U C9U C18A", "exon inclusion enrichment index": 0.0931},
      {"variant": "G5U G8U C9U C18A C19A", "exon inclusion enrichment index": 0.00397},
      {"variant": "G5U G8U C9U C18A C19G", "exon inclusion enrichment index": 0.00406},
      {"variant": "G5U G8U C9U C18A C19U", "exon inclusion enrichment index": 0.0019},
      {"variant": "G5U G8U C9U C18G", "exon inclusion enrichment index": 0.139},
      {"variant": "G5U G8U C9U C18G C19A", "exon inclusion enrichment index": 0.159},
      {"variant": "G5U G8U C9U C18G C19G", "exon inclusion enrichment index": 0.195},
      {"variant": "G5U G8U C9U C18G C19U", "exon inclusion enrichment index": 0.00531},
      {"variant": "G5U G8U C9U C18U", "exon inclusion enrichment index": 0.0536},
      {"variant": "G5U G8U C9U C18U C19A", "exon inclusion enrichment index": 0.00338},
      {"variant": "G5U G8U C9U C18U C19G", "exon inclusion enrichment index": 0.0199},
      {"variant": "G5U G8U C9U C18U C19U", "exon inclusion enrichment index": 0.000815},
      {"variant": "G5U G8U C9U C19A", "exon inclusion enrichment index": 0.0498},
      {"variant": "G5U G8U C9U C19A A20C", "exon inclusion enrichment index": 0.0372},
      {"variant": "G5U G8U C9U C19A A20G", "exon inclusion enrichment index": 0.00554},
      {"variant": "G5U G8U C9U C19A A20U", "exon inclusion enrichment index": 0.0164},
      {"variant": "G5U G8U C9U C19G", "exon inclusion enrichment index": 0.0649},
      {"variant": "G5U G8U C9U C19G A20C", "exon inclusion enrichment index": 0.13},
      {"variant": "G5U G8U C9U C19G A20G", "exon inclusion enrichment index": 0.0362},
      {"variant": "G5U G8U C9U C19G A20U", "exon inclusion enrichment index": 0.14},
      {"variant": "G5U G8U C9U C19U", "exon inclusion enrichment index": 0.00467},
      {"variant": "G5U G8U C9U C19U A20C", "exon inclusion enrichment index": 0.0318},
      {"variant": "G5U G8U C9U C19U A20G", "exon inclusion enrichment index": 0.0101}
    ]}
  ]
}
